# Data: PMC6572841, “Structural basis for the inhibition of translation through eIF2α phosphorylation” (Nature Communications, 2019)
# T1: eIF2Bε (Saccharomyces cerevisiae, UniProt P32501 1-712)
# T1 construct: eIF2Bε, S. cerevisiae; Subunit of m2 as it stood in the eIF2B-eIF2(αP) complex; the ε-cat HEAT domain was not included in any model; also called eIF2B ε subunit; source: over-expressed in S. cerevisiae strain GP4109, purified as part of Flag-tagged eIF2B
# T1 sequence: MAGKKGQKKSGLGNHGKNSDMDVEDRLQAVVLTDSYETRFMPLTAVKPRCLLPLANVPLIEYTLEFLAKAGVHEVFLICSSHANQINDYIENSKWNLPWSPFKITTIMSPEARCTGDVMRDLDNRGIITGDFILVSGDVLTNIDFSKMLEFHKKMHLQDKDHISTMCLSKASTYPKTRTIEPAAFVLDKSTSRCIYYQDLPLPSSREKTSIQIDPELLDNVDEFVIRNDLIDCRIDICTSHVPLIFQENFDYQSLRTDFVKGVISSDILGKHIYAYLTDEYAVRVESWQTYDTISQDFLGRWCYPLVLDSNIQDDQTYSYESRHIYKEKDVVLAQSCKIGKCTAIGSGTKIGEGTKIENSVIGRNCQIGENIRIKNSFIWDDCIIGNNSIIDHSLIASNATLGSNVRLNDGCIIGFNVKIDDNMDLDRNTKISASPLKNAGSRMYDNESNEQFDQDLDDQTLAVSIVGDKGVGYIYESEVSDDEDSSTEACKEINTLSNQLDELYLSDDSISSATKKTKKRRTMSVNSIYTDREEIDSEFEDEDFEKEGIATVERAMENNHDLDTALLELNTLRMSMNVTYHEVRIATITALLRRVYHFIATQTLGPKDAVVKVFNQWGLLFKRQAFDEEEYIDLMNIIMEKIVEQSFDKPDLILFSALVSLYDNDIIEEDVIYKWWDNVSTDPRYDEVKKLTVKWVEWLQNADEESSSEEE
# T2: eIF2Bβ (Saccharomyces cerevisiae, UniProt P32502 1-381)
# T2 construct: eIF2Bβ, S. cerevisiae; Subunit of m2 as it stood in the eIF2B-eIF2(αP) complex; also called eIF2B β subunit; source: over-expressed in S. cerevisiae strain GP4109, purified as part of Flag-tagged eIF2B
# T2 sequence: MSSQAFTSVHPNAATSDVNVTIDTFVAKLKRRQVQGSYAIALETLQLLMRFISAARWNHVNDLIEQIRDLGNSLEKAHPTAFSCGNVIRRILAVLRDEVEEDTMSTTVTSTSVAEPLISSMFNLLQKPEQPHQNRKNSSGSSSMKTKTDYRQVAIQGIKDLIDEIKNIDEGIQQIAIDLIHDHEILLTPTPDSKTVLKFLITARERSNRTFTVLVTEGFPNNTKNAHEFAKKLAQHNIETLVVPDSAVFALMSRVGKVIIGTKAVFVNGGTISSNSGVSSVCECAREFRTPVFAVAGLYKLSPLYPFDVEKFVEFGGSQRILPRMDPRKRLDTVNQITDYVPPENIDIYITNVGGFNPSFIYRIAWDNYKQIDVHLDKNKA
# T3: eIF2Bδ (Saccharomyces cerevisiae, UniProt P12754 1-651)
# T3 construct: eIF2Bδ, S. cerevisiae; Subunit of m2 as it stood in the eIF2B-eIF2(αP) complex; also called eIF2B δ subunit; source: over-expressed in S. cerevisiae strain GP4109, purified as part of Flag-tagged eIF2B
# T3 sequence: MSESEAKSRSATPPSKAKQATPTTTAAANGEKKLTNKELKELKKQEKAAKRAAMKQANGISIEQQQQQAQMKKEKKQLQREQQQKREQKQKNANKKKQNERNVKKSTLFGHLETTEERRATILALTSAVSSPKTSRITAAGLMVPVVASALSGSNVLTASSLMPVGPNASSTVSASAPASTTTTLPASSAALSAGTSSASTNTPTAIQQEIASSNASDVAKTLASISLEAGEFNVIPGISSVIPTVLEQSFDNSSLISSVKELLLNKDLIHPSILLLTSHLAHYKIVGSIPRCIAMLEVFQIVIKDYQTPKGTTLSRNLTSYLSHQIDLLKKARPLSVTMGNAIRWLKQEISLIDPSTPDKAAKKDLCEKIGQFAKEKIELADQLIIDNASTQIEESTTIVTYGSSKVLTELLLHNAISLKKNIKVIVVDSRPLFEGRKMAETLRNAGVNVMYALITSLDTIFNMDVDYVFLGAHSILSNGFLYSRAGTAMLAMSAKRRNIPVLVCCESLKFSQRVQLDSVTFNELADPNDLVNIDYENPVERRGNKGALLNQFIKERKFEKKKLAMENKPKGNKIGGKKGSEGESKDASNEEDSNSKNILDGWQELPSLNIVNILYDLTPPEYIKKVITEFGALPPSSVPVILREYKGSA
# B1: eIF2Bγ (natural protein, Saccharomyces cerevisiae)
# chain: MSIQAFVFCGKGSNLAPFTQPDFPFQTQNKDSTAATSGDKLNELVNSALDSTVINEFMQHSTRLPKALLPIGNRPMIEYVLDWCDQADFKEISVVAPVDEIELIESGLTSFLSLRKQQFELIYKALSNSNHSHHLQDPKKINFIPSKANSTGESLQKELLPRINGDFVILPCDFVTDIPPQVLVDQFRNRDDNNLAMTIYYKNSLDSSIDKKQQQKQKQQQFFTVYSENEDSERQPILLDVYSQRDVTKTKYLQIRSHLLWNYPNLTVSTKLLNSFIYFCSFELCQLLKLGPQSMSRQASFKDPFTGNQQQQNPPTTDDDEDRNHDDDDDYKPSATSIQPTYFKKKNDLILDPINCNKSLSKVFRDLSRRSWQHSKPREPIGIFILPNETLFIRANNLNAYMDANRFVLKIKSQTMFTKNIQIQSAAIGADAIVDPKCQISAHSNVKMSVLGTQANIGSRCRVAGSLLFPGVHLGDEVILENCIIGPMAKIGSKCKLSNCYIEGHYVVEPKNNFKGETLANVYLDEDEEDELIYDDSVIAGESEIAEETDSDDRSDEDSDDSEYTDEYEYEDDGLFER
# notes: eIF2Bγ, S. cerevisiae; Subunit of m2 as it stood in the eIF2B-eIF2(αP) complex; also called eIF2B γ subunit; source: over-expressed in S. cerevisiae strain GP4109, purified as part of Flag-tagged eIF2B
# B2: eIF2Bα (natural protein, Saccharomyces cerevisiae)
# chain: MSEFNITETYLRFLEEDTEMTMPIAAIEALVTLLRIKTPETAAEMINTIKSSTEELIKSIPNSVSLRAGCDIFMRFVLRNLHLYGDWENCKQHLIENGQLFVSRAKKSRNKIAEIGVDFIADDDIILVHGYSRAVFSLLNHAANKFIRFRCVVTESRPSKQGNQLYTLLEQKGIPVTLIVDSAVGAVIDKVDKVFVGAEGVAESGGIINLVGTYSVGVLAHNARKPFYVVTESHKFVRMFPLSSDDLPMAGPPLDFTRRTDDLEDALRGPTIDYTAQEYITALITDLGVLTPSAVSEELIKMWYD
# notes: eIF2Bα, S. cerevisiae; Subunit of m2 as it stood in the eIF2B-eIF2(αP) complex; also called eIF2B α subunit; source: over-expressed in S. cerevisiae strain GP4109, purified as part of Flag-tagged eIF2B
# How the values were obtained:
# Test in all cases: cryo-EM structure; eIF2(αP) with 2 mM GDP added to Flag-tagged eIF2B immobilised on Anti-Flag M2 gel, eluted with 3XFlag-peptide; 20 mM Hepes (pH 7.5), 100 mM KCl, 5 mM MgCl2, 5 mM β-ME; diluted to ~200 nM with 0.1% glutaraldehyde; six maps, 4.2 to 10.4 Å
# Details in all cases: both partners purified
# eIF2Bε = target: T1, eIF2Bε
# eIF2Bγ = target: B1
# eIF2Bα = target: B2
# eIF2Bβ = target: T2, eIF2Bβ
# eIF2Bδ = target: T3, eIF2Bδ
Binder,binding result (eIF2Bε),binding result (eIF2Bγ),binding result (eIF2Bβ),other results
B1,binds,–,–,–
"eIF2γ (natural protein, Saccharomyces cerevisiae, UniProt P32481 1-527, looked up, eIF2γ, S. cerevisiae; Subunit of m1 as it stood in the eIF2B-eIF2(αP) complex; also called eIF2 γ subunit; source: purified from S. cerevisiae strain GP3511 as part of eIF2) MSDLQDQEPSIIINGNLEPVGEPDIVEETEVVAQETQETQDADKPKKKVAFTGLEEDGETEEEKRKREFEEGGGLPEQPLNPDFSKLNPLSAEIINRQATINIGTIGHVAHGKSTVVRAISGVQTVRFKDELERNITIKLGYANAKIYKCQEPTCPEPDCYRSFKSDKEISPKCQRPGCPGRYKLVRHVSFVDCPGHDILMSTMLSGAAVMDAALLLIAGNESCPQPQTSEHLAAIEIMKLKHVIILQNKVDLMREESALEHQKSILKFIRGTIADGAPIVPISAQLKYNIDAVNEFIVKTIPVPPRDFMISPRLIVIRSFDVNKPGAEIEDLKGGVAGGSILNGVFKLGDEIEIRPGIVTKDDKGKIQCKPIFSNIVSLFAEQNDLKFAVPGGLIGVGTKVDPTLCRADRLVGQVVGAKGHLPNIYTDIEINYFLLRRLLGVKTDGQKQAKVRKLEPNEVLMVNIGSTATGARVVAVKADMARLQLTSPACTEINEKIALSRRIEKHWRLIGWATIKKGTTLEPIA",–,binds,–,–
"eIF2β (natural protein, Saccharomyces cerevisiae, UniProt P09064 1-285, looked up, eIF2β, S. cerevisiae; Subunit of m1 as it stood in the eIF2B-eIF2(αP) complex; also called eIF2 β subunit; source: purified from S. cerevisiae strain GP3511 as part of eIF2) MSSDLAAELGFDPALKKKKKTKKVIPDDFDAAVNGKENGSGDDLFAGLKKKKKKSKSVSADAEAEKEPTDDIAEALGELSLKKKKKKTKDSSVDAFEKELAKAGLDNVDAESKEGTPSANSSIQQEVGLPYSELLSRFFNILRTNNPELAGDRSGPKFRIPPPVCLRDGKKTIFSNIQDIAEKLHRSPEHLIQYLFAELGTSGSVDGQKRLVIKGKFQSKQMENVLRRYILEYVTCKTCKSINTELKREQSNRLFFMVCKSCGSTRSVSSIKTGFQATVGKRRRM",binds,binds,–,–
"eIF2α phosphorylated at Ser51 (natural protein, Saccharomyces cerevisiae, UniProt P20459 1-304, looked up, phosphoserine at 51 (52 sequence numbering); measured by mass spectrometry to be 89.4%, eIF2α, S. cerevisiae; Subunit of m1 as it stood in the eIF2B-eIF2(αP) complex; also called eIF2(αP) α subunit; source: purified from S. cerevisiae strain GP3511 as part of eIF2; phosphorylated in vitro by human PKR (Invitrogen)) MSTSHCRFYENKYPEIDDIVMVNVQQIAEMGAYVKLLEYDNIEGMILLSELSRRRIRSIQKLIRVGKNDVAVVLRVDKEKGYIDLSKRRVSSEDIIKCEEKYQKSKTVHSILRYCAEKFQIPLEELYKTIAWPLSRKFGHAYEAFKLSIIDETVWEGIEPPSKDVLDELKNYISKRLTPQAVKIRADVEVSCFSYEGIDAIKDALKSAEDMSTEQMQVKVKLVAAPLYVLTTQALDKQKGIEQLESAIEKITEVITKYGGVCNITMPPKAVTATEDAELQALLESKELDNRSDSEDDEDESDDE",–,–,binds,binding result (eIF2Bα): binds; binding result (eIF2Bδ): binds
B2,–,–,binds,–
